The data set is described as follows: soluble on expression in E. coli; label from the status in PepcDB or PDB records.
As for “MSSVPKNKDELELAINSIFPKLMVDYRSIPESKARKVGVEGNVKGTFISVSDTVAYLIGWGKLVLKWHRLKSQNQHVDFPETGYKWNQLGLLAESFHEEYRDWKYSDLLVELEFTINEILLLISSLSDHELYGVAWYEQWTLGRMIQFNTSSPMKNMRTKVRRFNREFTLEHHHHHH”, the “soluble on expression in E. coli” value is reported as “not soluble”.
For the sequence “MSSYDIAIIGGGISGVGIAQYAAAAGYSTLLIEKGEIGGQTSANSSKLIHGGLRYLESGQINLVRKSLLERRNLLDLAPSLVKPVAFYIPVYQDSRRNPLTIRAGLSLYALLSEFDPLGRFVSIPAVHWHRFKGLKLSGLKAVFQYWDAQTDDKLLTQAVARSAQALGAHIYAEAEFLQLNHLKEQIELSFRHRGEVQQIETKLVINAAGPWVNEVLAHVEPPLAGVEIDWVQGAHLLLDLPAPEGILYLESCFDKRVIFVMPWYGQMLIGTTETVLTSIDTPPQVTESETQYLLGIYCHYFPLSPSIEELKTKIVQTYCGVRVLPKQASSAFERPRDTLMQTSISHPRLLCLYGGKLTTFRSSSAEVLEWIEQKLGKRQPIADIDTLKLTLEHHHHHH”, the “soluble on expression in E. coli” value is on record as “not soluble”.
Regarding “MSTDEERIYSIALTQIPGVGHIGAKRLVDGMGSATDVFRYRTELPDRLPGVNRAVVAALDSPQALKRAEQEYEFARNNRISCFTLADEDYPSRLRECDDAPVVLFFKGKANLNALHIINMVGTRNATDYGKHICVSFLQELQMLCPDVLVVSGLAYGIDINAHRSALSVELPTVGVLAHGLDRIYPSLHRKTAIDMLRQGGLLTEFLSGTNPDKHNFISRNRIVAGISDATIVVESAAKGGSLITADIAGSYHRDCFAFPGRVTDEYSKGCNQLIQDNKAVLLESASDFVKTMGWDSDLKSVKPETVQRNLFPDLSAEELRIVDILGKLGDLQINALMVQADIPINKISAILFELEMKGVIRVLAGGVYQLLR”, the “soluble on expression in E. coli” value is reported as “not soluble”.
As for “MSTEDALCFTGEEYARHVREYWRGVAESDGFDSEDIRSPVVLTGLFHYDCQSGRRYPDPLLVKRYALLGLHRFNILQGTSFELDALQKFNKTMNLTSSYYITLLANEPGAIPLQKTFQVRVDERKYDTLDLTVAIARLKKDQNEAAETTKEPFVPHFCCSAVSDGVFQGPLPDWPSDDALRHDRNRFYELEKSEWQATDWISLYLELLILATDRGMFGVAQTGLPQVQILKVVIETEEENEKPLDKRLNARRAHVYITFTGLPKSPRLVEIGEHVERKAIIRRVIDDSGYLTLLGKFWSGKDTEQRSKTRQSEEKVESSQKRSRLC”, the entry is “soluble”; as for “MSTHASAHGSTHTSTHHPIAVIGAGLGGLAAARVLHVHGIEAAVYEADASPTARHQGGMLDIHGESGQAALRAAGLYEEFRAIVHPGGEATRILDKDGTVRHEEGDRPEEGDRPEVDRNDLRRILLDSLPEGTIRWGAKVTGARALGGGRHEVTLADGSVFTTDVLIGADGAWSRIRPLLSPATPAYTGISFVEADLHEAATRHRAAAELVGGGSMFALAEGKGILTHLETDGSVHAYVALKADEDWLSTIDFTGTDTDTAKKTLLTHFEDWDDRLRALITDADGALVPRLIHALPVDHRWERTAGVTLLGDAAHLMSPFAGEGANLALLDGAELATALAAHPADPESALTAYERSLFPRSHRAAGESAANLTFMFGPNALEELVGMMSGHEPSDRLEHHHHHH”, “soluble”.
As for “MSTLLPFPCEEKIPEGKYVLRTFEIKEGQVKEKLKDLNYEILASLSGVDLTFEKEEEWKKAKEILSDYVYTDRPESLEETLGRILKEKGFTLSTAESCTAGMLSSRIVNVPGSSEYFVGGFVVYSNDLKVKYLCVSEDTLKKYGAVSWQTCLEMTVGLKSNLGTDCGIAITGIAGPGGTLTKPQGLTYIGIFVKDKLTVIKRIFKGSRNENRFLSTQTAIFYLLKLLKR”, the entry is “soluble”; as for “MSTNPGPAEGANQVMAQEHSAGAVQFTAHNVRLDDGTLTIPESSRTLDESSWFISARGILETVFPGDKSHLRLADVGCLEGGYAVGFARMGFQVLGIEVRELNMAACNYIKSKTNLPNLRFVHDNALNIANHGLFDTVFCCGLFYHLENPKQYLETLSSVTNKLLILQTHFSIINRSDKWLRLPTTARQLTDRLLRRPAPVKFMLSAPTEHEGLPGRWFTEFSDDRSFGQRDTAKWASWDNRRSFWIQREHLLQAIKDVGVDLVMEEYDNLEPSIAESLLGGSYAANLRGTFIGIKTR”, “soluble”; as for “MSTQKRAIAKTDMLKFTETSQPIGQKKYVELSKDIFIFSYLCGGINFTDIANLTQENIVNGRLHYIRQKTGKLIKIGIPQEAMQIIKKYTDESNGYLFPILNVKVHKTALQKQNRIHKIRGKVNDILKTLGKRLGIEANITTYVARHSFASVLKKSGVNIALISEALGHSDLATTQIYLDSFDNEQVDEAMKNLLEHHHHHH”, “not soluble”.
Consider “MSTRKAVIGYYFIPTNQINNYTETDTSVVPFPVSNITPAKAKQLTHINFSFLDINSNLECAWDPATNDAKARDVVNRLTALKAHNPSLRIMFSIGGWYYSNDLGVSHANYVNAVKTPASRAKFAQSCVRIMKDYGFDGVDINWEYPQAAEVDGFIAALQEIRTLLNQQTITDGRQALPYQLTIAGAGGAFFLSRYYSKLAQIVAPLDYINLMTYDLAGPWEKVTNHQAALFGDAAGPTFYNALREANLGWSWEELTRAFPSPFSLTVDAAVQQHLMMEGVPSAKIVMGVPFYGRAFKGVSGGNGGQYSSHSTPGEDPYPSTDYWLVGCEECVRDKDPRIASYRQLEQMLQGNYGYQRLWNDKTKTPYLYHAQNGLFVTYDDAESFKYKAKYIKQQQLGGVMFWHLGQDNRNGDLLAALDRYFNAADYDDSQLDMGTGLRYTGVGPGNLPIMTAPAYVPGTTYAQGALVSYQGYVWQTKWGYITSAPGSDSAWLKVGRVA”, for which the “soluble on expression in E. coli” value is “soluble”.
For “MSTSNAQSGRAAAIARRNAQVKGKGYTASAAPAAPRKPAAPVAEPVVAAAPAPSQPSRSRRKVSVAPTATPAASAAGREAAKLKRQQQKNGKSSAGAANAMPHPKAKAKQKPEEPIVEPRQAKAEKPTKRSERRTGVKPQVASQQPSGRLQSKAYRKAQAKGKAGQEAFKSNGSSQSGAKAKLANPDASTREIAQQVRAERCAQGKTCSTGGSRPMRKRRNAKEAPQKVGESQTLHGQSVSGTQVGQGEKKMTGSESGACQLVSGTEYLGAEEFSKNCDVQPTPQPAKVTQTQTTRGQVVSGSTKVGRSDKMTGNETGTCSAITGTEYLPADQSKMYCGETPAKSKATGFSVMSQATQKSEQKVTGGDSRKSQSTTFKPKNPASAPHKVMPSQTAKGNTTTGSQVGRLESVTGGERGSCHAVTGTGYQGAEEAKACDMPMTETADKVTASGTAGGQKVTGDRSGAYYGMTGAEAGDCKTITGTSYTGTEQFQFCSVDEQNEMKVRQRKGANPSISGVQPGPQGLTGAQKGACELVTGSHYQGGDQTAMVCDSTNAAAPGESDFPAMIGQAQPAFSTNEVEPMVDEGSKITGDGWDRGSKVTGTDGPWAAQRNASIRGVAGQSPMGASQYRPVNNEVPMSPITGSSGNTDTGAKVTLSGGARA”, the “soluble on expression in E. coli” value was “not soluble”.
Take “MSTSRDRVRQALSHQGSDRIPVDFGATAVTGIHCRVVEALRKHYGLSYKPVKIVDTFQMLGEVDRDLADAMGVDCIGVGGTRDIFDHDTECMHEQVTPWGQKVLVPIQLDLTQDKEGDVYVYAGGDKNYPPSAVMPNGCFFINAIERQQPIDEDKLNPMDNLEEFNSITDEELDVYKKKVNEASATGRAVVASFGGTALGDVAFVPGMGLKEPKGIRSVVEWYMSTVMRQEYLHEIFRRQTDIAIANYEKLWAVLGDKVDVVLTCGTDFGSQESQFCSVEVFNELWLPHYRRMNDWIHEHTTWKVFKHSCGAIVPILPGLIKAGFDIINPVQINAKDMDSGMLKREFGSHLTFWGGGVDTQKMLPFGTPDEIRRHVLGQCEILGKDGGFVFNSVHNIQANVPVENVIAMLDALKTVLEHHHHHH”: the “soluble on expression in E. coli” value is on record as “not soluble”.
Consider “MSTSTAPSSASSDADSLNHDENPIKAVIFDYGEVMWMQSRNVHVYRKIEEDNKLFDNSLIPTLVSKELSSILPKGFQEDLLTGIYTAKDFDRLFLSAYNRKFGSQVESLKFFSATEYDNDAVYEEAVLTACQKLRERGVKTILMLDTYHVDEKRNGRRIPNMEKYFDHVIESCKEGVKKPDPRFYQIALDCVDVQPEEVIYIDDSKINCESAAVLGIRYIQVFNSMDMLEDLQEILGFDLD”, for which the “soluble on expression in E. coli” value is on record as “not soluble”.
